Consider 7 molecules from patent US20250051474A1, “ANTI-CD97 ANTIBODIES AND ANTIBODY-DRUG CONJUGATES” (New York University, priority 2023, published 2025).

Data set [1] addresses EMR2 (EGF-like module-containing mucin-like hormone receptor-like 2) isoform 1 ectodomain, purified and biotinylated (UniProt Q9UHX3). Put plainly: bead-based binding titration (biotinylated antigen on streptavidin beads, flow cytometry), 1:1 fit. (Flow cytometry measures light scatter and fluorescence of single cells or particles in a stream.)
For data set [2], the target named is T1, CD97 (ADGRE5) isoform 1 ectodomain, purified and biotinylated (human, UniProt P48960 21-552, limits assumed, biotinylated in vitro using the BirA enzyme).
T1 construct: the whole entry for isoform 1 is named here; also called CD97 isoform 1; Biotinylated CD97 isoform 1
T1 sequence: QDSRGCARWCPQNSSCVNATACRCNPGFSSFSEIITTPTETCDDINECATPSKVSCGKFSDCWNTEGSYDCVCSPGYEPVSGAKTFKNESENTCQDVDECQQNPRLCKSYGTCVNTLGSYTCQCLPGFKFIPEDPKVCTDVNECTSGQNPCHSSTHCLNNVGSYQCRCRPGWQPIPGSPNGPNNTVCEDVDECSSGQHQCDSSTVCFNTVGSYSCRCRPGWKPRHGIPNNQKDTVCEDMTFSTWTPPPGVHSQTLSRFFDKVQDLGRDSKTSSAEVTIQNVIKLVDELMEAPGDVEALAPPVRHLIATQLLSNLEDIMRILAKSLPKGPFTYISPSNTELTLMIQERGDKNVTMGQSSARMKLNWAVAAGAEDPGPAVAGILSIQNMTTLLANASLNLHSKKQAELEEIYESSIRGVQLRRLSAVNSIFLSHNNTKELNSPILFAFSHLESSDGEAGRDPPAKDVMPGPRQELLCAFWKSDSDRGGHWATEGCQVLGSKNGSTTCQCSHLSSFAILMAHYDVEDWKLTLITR
The data set is described as above.

In data set [3] the target is T2, CD97 (ADGRE5) isoform 2 ectodomain, purified and biotinylated (human, UniProt P48960 21-552, biotinylated in vitro using the BirA enzyme).
T2 construct: the whole entry for isoform 2 is named here; also called CD97 isoform 2
T2 sequence: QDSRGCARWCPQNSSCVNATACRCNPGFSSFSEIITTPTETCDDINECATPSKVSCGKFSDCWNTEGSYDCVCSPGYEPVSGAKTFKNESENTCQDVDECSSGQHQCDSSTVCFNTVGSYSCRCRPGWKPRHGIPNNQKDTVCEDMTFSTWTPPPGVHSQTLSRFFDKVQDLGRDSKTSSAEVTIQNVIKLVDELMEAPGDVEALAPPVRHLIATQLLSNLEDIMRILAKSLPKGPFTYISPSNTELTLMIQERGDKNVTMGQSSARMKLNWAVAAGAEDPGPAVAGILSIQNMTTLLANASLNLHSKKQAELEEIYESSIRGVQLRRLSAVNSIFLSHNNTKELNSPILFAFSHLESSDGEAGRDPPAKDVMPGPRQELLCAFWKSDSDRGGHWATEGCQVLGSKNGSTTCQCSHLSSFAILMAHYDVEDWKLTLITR
Described as above.

For data set [4], the target named is T3, EMR2 (EGF-like module-containing mucin-like hormone receptor-like 2) isoform 4 ectodomain, purified and … (UniProt Q9UHX3-4 24-447, limits assumed, biotinylated in vitro using the BirA enzyme).
T3 construct: extracellular domain; Close homolog of CD97 used as specificity control
T3 sequence (looked up): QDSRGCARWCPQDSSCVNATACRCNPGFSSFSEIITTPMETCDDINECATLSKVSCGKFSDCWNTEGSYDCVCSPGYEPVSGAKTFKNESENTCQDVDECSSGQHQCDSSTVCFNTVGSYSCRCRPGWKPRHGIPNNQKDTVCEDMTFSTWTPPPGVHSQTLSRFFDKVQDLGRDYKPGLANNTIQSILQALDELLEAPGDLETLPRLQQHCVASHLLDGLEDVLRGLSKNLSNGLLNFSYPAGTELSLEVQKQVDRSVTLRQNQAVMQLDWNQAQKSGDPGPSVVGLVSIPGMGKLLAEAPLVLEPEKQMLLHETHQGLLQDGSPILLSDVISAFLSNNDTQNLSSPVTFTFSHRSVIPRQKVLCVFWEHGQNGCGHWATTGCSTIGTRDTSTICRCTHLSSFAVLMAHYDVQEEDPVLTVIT
The data set is described as above.

Data set [5] has as its target T2, CD97 (ADGRE5) isoform 2 ectodomain, …. Put plainly: bead-based binding titration (biotinylated antigen on streptavidin beads, flow cytometry) [Continued].
The target in data set [6] is T3, EMR2 (EGF-like module-containing …). The data set is described as above.
For data set [7], the target named is T1, CD97 (ADGRE5) isoform 1 ectodomain, …. Nature of the data set: bead-based binding titration (biotinylated antigen on streptavidin beads, flow cytometry), 1:1 fit [Continued].
The target is the same in data set [8]. Nature of the data set: bead-based binding assay: biotinylated CD97 isoform 1 on streptavidin beads, Fab titrated, flow cytometry MFI, 1:1 fit; EXPERIMENT 1.
For data set [9] the target is unchanged. Nature of the data set: bead-based binding assay: biotinylated CD97 isoform 1 on streptavidin beads, Fab titrated, flow cytometry MFI, 1:1 fit; EXPERIMENT 2.
The test system of data set [10] is OCI-AML3 cells. Put plainly: Cell viability assay (PrestoBlue) of ADC. The settings on record: 3 days incubation. The data set is classed as cell-based, human. The protocol: (§1) For the cell viability assay, the cells were mixed with ADC (20,000 cells/well), and incubated at 37° C. with 5% CO2 for 3 days. After incubation, cell viability was assessed by PrestoBlue assay (Thermo Fisher), following the manufacturer's protocol. The fluorescence was measured using a FlexStation 3 multi-mode microplate reader (Molecular Devices). Dose-response curves and respective ECso were generated using Prism software (GraphPad). For the cell-killing assay, a 96-well plate was coated with 0.1% poly-D-lysine. The cells were mixed with a diluted Incucyte® Annexin V Green Dye (Sartorius) and ADC (13,500 cells/well), and incubated in an Incucyte live-cell analysis system (Sartorius) at 37° C. with 5% CO2 for 4 days. The percentage of dead cells was analyzed using Incucyte Software (Sartorious).

The subject of a further data set is AML cells. Put plainly: Cell viability assay (PrestoBlue), cell killing specificity. The data set is classed as cell-based, human. The settings on record: cells with different CD97 levels. As for the experimental part: as §1
The test system of data set [11] is OCI-AML3 cells. Put plainly: Cell-killing assay (Annexin V staining, Incucyte). It counts as cell-based, human. The protocol:
as §1

In data set [12] the test system is human peripheral blood mononuclear cells (PBMCs). Put plainly: Cell-killing assay (Annexin V staining, Incucyte). It counts as cell-based. The settings on record: 4 days incubation. The protocol:
as §1

Data set [13] concerns the target T1, CD97 (ADGRE5) isoform 1 ectodomain, …. Put plainly: bead-based binding assay: biotinylated CD97 isoform 1 on streptavidin beads, Fab titrated, flow cytometry MFI; EXPERIMENT 1 and EXPERIMENT 2.

Positions count from the first letter of the chain named. “Also recorded” adds a separate entry of the source.

B1: Fab 2V10 (Fab, V domains shown)
VH: EVQLVESGGGLVQPGGSLRLSCAASGFTISSSSIHWVRQAPGKGLEWVAYIYPSSGSTSYADSVKGRFTISADTSKNTAYLQMNSLRAEDTAVYYCARPWYYSTFNKKWWDYQGLDYWGQGTLVTVSS
VL: DIQMTQSPSSLSASVGDRVTITCRASQSVSSAVAWYQQKPGKAPKLLIYSASSLYSGVPSRFSGSRSGTDFTLTISSLQPEDFATYYCQQSWWDPITFGQGTKVEIKR
notes: second discovery campaign; biotinylated Fab in the bead assay; same clone as m10 in Fab format; also called Antibody Clone 2V10
Consider B1, for which the Kd in data set [1] is 1.6 nM; in [2], 2.7 nM; in [3], 3 nM; in [4], 1.5 nM.

B2: Fab 2W1 (Fab, V domains shown)
VH: EVQLVESGGGLVQPGGSLRLSCAASGFTVSSSSIHWVRQAPGKGLEWVAYISSSSGSTYYADSVKGRFTISADTSKNTAYLQMNSLRAEDTAVYYCARDFYFGSYYSFGWGLDYWGQGTLVTVSS
VL: B1 VL with S91D, W92S, W93S, D94Y
notes: second discovery campaign; biotinylated Fab in the bead assay; also called Antibody Clone 2W1
For B2, the Kd in data set [1] turned out to be 47 nM; in data set [2] it was 18 nM; in data set [3], 18 nM; in data set [4] it was 52 nM.

B3: Antibody clone C27, Fab format (Fab, V domains shown)
VH: EVQLVESGGGLVQPGGSLRLSCAASGFTLSSSSIHWVRQAPGKGLEWVASIYSYYGSTYYADSVKGRFTISADTSKNTAYLQMNSLRAEDTAVYYCARYRGNMYYWESWYGSYWALDYWGQGTLVTVSS
VL: B1 VL with W92S, W93S, D94S, P95L
On to B3, for which the binding result in data set [5] and in [6] was “no binding (tested: 50 nM)” throughout. In addition, the Kd in data set [7] was determined as 16 nM.

B4: N100bHE (Fab, V domains shown)
VH: EVQLVESGGGLVQPGGSLRLSCAASGFTISSYSIHWVRQAPGKGLEWVASISPYYGSTSYADSVKGRFTISADTSKNTAYLQMNSLRAEDTAVYYCARSWYYYEQEPYWYQKEEQALDYWGQGTLVTVSS
VL: DIQMTQSPSSLSASVGDRVTITCRASQSVSSAVAWYQQKPGKAPKLLIYSASSLYSGVPSRFSGSRSGTDFTLTISSLQPEDFATYYCQQSVYSPVTFGQGTKVEIK
notes: also called A8 N100bHE; Antibody Clone A8 N100bHE; copies: 1 + 1
Consider B4, for which the values for the equilibrium dissociation constant (Kd) in data set [8] and in data set [9] were 160 nM and 150 nM, respectively.

B5: A8-MMAF (conjugate)
VH: B4 VH with E106N
VL: DIQMTQSPSSLSASVGDRVTITCRASQSVSSAVAWYQQKPGKAPKLLIYSASSLYSGVPSRFSGSRSGTDFTLTISSLQPEDFATYYCQQSVYSPVTFGQGTKVEIKRTV
modifications: non-natural residues
On to B5, for which, in the data set with OCI-AML3 cells [10], the “cell killing (cell viability)” value is on record as “potently killed OCI-AML3 cells in a dose-dependent manner; also recorded: potent cell-killing effect on OCI-AML3 cells”. In the data set with AML cells, the “cell killing specificity versus cell-surface CD97 level” value is “correlated with the cell-surface CD97 level; also recorded: inhibited cell growth only for the cells expressing a high level of CD97”.

B6: A8S293C-PBD (conjugate)
VH: B4 VH with E106N
VL: B5 VL
For the molecule B6, the “cell-killing effect (cell death, Annexin V)” value in the data set on OCI-AML3 cells [11] (4 days incubation) is “potent cell-killing effect”. Further, in the data set on OCI-AML3 cells [11] (OCI-AML3 (hCD97 high) versus ExpiCHO (hCD97-null), 4 days), the “specificity of cell killing” value was “specifically killed cells expressing high levels of CD97”. Further, the “killing of PBMC cells” value in data set [12] is on record as “did not kill PBMC cells”.

B7: W100eHA (Fab, V domains shown)
VH: B4 VH with E106N, W109A
VL: B4 VL
notes: also called A8 W100eHA; Antibody Clone A8 W100eHA; copies: 1 + 1
Take B7: the binding result in data set [13] is reported as “no binding”.

One may read the Kd as the equilibrium constant for the complex coming apart.
